From US20200347127A1 (CRESCENDO BIOLOGICS, published 2020)
Where a chain is given by its changes, count along the chain named. Where two headings read alike, the source gives them in different places.

Experiments:
recombinant human IL-17A [1] = target: T1, recombinant human IL-17A (human, UniProt Q16552 24-155); experiment: cell-based or functional assay
recombinant human IL-17A [2] = target: T1, recombinant human IL-17A; experiment: cell-based or functional assay; remark: listed apart in the source
recombinant human IL-17A [3] = target: T1, recombinant human IL-17A; experiment: competition ELISA, IL-17A binding to coated IL-17RA-Fc
recombinant human IL-17A [4] = target: T1, recombinant human IL-17A; experiment: competition ELISA, IL-17A binding to coated IL-17RA-Fc (FIG. 9B); FIG. 9B
recombinant human IL-17A [5] = target: T1, recombinant human IL-17A; experiment: SPR (BIAcore T200), IL-17A coupled to CM5 chip, single-cycle kinetics
recombinant human IL-17A [6] = target: T1, recombinant human IL-17A; experiment: as above; remark: listed apart in the source
IL17E = target: T2, IL17E; experiment: specificity ELISA on coated antigen, VH concentration not given
T2 construct: also called IL-25
T2 chain: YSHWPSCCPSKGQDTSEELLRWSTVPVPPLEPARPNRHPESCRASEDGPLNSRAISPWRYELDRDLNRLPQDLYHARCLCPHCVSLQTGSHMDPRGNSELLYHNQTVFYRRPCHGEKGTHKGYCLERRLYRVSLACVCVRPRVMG

IL-17C [7] = target: T3, IL-17C (UniProt Q9P0M4 19-197, limits assumed); experiment: as above
T3 sequence (looked up): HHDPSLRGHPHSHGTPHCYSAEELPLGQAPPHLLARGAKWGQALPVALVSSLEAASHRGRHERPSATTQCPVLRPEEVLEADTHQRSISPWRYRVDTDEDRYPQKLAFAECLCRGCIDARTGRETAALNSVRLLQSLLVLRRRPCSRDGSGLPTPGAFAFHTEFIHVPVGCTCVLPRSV

IL-17F [8] = target: T4, IL-17F (UniProt Q96PD4 31-163, limits assumed); experiment: as above
T4 sequence (looked up): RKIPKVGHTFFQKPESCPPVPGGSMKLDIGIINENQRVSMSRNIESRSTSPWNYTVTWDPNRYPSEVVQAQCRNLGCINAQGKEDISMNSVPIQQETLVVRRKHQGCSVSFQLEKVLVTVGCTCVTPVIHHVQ

recombinant human IL-17A [9] = target: T1, recombinant human IL-17A; experiment: SPR (BIAcore)
recombinant human IL-17A [10] = target: T1, recombinant human IL-17A; experiment: VH screening as in examples 7 and 8
recombinant human IL-17A [11] = target: T1, recombinant human IL-17A; experiment: competition ELISA, IL-17A binding to coated IL-17RA-Fc; FIG. 9A
recombinant IL-17RA-Fc = target: T5, recombinant IL-17RA-Fc (UniProt Q96F46 33-320); experiment: specificity ELISA on coated antigen, VH concentration not given
T5 construct: Bought reagent; also called R & D systems cat #177-IR-100; receptor; not shown: Fc part of the bought fusion, not described

IL-17C [12] = target: T3, IL-17C; experiment: as above; remark: listed apart in the source
IL-17F [13] = target: T4, IL-17F; experiment: as above; remark: listed apart in the source
murine IL-17A = target: T6, murine IL-17A (murine, UniProt Q62386 26-158, limits assumed); experiment: as above
T6 sequence (looked up): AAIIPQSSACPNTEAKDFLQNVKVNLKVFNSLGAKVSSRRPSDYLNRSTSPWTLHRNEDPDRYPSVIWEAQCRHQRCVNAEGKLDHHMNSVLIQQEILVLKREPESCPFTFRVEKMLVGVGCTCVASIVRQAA

recombinant human IL-17A [14] = target: T1, recombinant human IL-17A; experiment: BIAcore single-cycle kinetics on immobilised IL-17A, 1:1 binding fit
recombinant human IL-17A [15] = target: T1, recombinant human IL-17A; experiment: cell-based or functional assay; remark: listed apart in the source
recombinant human IL-17A [16] = target: T1, recombinant human IL-17A; experiment: BIAcore single-cycle kinetics on IL-17A (n=2 per legend)
recombinant human IL-17A [17] = target: T1, recombinant human IL-17A; experiment: BIAcore single-cycle kinetics, ligand Il-17, 1:1 binding fit, 25 C (n=1 per legend)

T1 sequence (Q16552 24-155): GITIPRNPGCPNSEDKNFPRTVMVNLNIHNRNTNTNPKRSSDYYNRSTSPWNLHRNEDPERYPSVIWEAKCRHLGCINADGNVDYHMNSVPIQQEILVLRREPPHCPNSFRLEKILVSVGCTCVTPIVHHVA

B1: VH 1.1.1 (clone 1.1 expressed from phagemid vector: with linker residues and His tag) (VHH)
VHH: EVQLVESGGGLVQPGGSLRLSCAASGFTFSSYSMYWVRQAPGKGLEWVANIKQDGSEKYYVDSVKGRFTISRDNAKNSLFLQMNSLRAEDTAVYYCAKGEILPLHFDYWGQGTLVTVSS
notes: Human single VH domain; also called Family 1 (clone 1.1)
How did the “Cell assay IC50 (nM), IL-17A-induced IL6 release from HT1080” value (from here on “Cell assay IC50 (nM)”) (recombinant human IL-17A [1]) turn out when B1 was run?
The value was 13 nM.

What about the “Cell assay IC50 (nM)” value (recombinant human IL-17A [2]) of the same binder?
Its value is 13 nM.

And the IC50 (recombinant human IL-17A [3])?
The IC50 was 53 nM.

What about the IC50 (recombinant human IL-17A [4]) of the same binder?
Its IC50 is 29 nM.

And the Kd (recombinant human IL-17A [5])?
Its Kd is 5 nM.

What about the koff (recombinant human IL-17A [5]) of the same binder?
The koff was 0.00149 s⁻¹.

What about the kon (recombinant human IL-17A [5]) of the same binder?
Its kon is 296000 M⁻¹ s⁻¹.

And the Kd (recombinant human IL-17A [6])?
Its Kd is 5 nM.

And the koff (recombinant human IL-17A [6])?
The koff was 0.00149 s⁻¹.

And the kon (recombinant human IL-17A [6])?
The kon was 296000 M⁻¹ s⁻¹.

Does B1 bind (IL17E)?
Result: no binding

Does B1 bind (IL-17C [7])?
Result: no binding

Does B1 bind (IL-17F [8])?
Result: no binding

B2: VH 1.10.1 (clone 1.10 expressed from phagemid vector: with linker residues and His tag) (VHH)
VHH: B1 VHH with S33R, N50S, K52E, K58E, N77K, H105Y
notes: Human single VH domain
How did the “Cell assay IC50 (nM)” value (recombinant human IL-17A [2]) turn out when B2 was run?
Its value is 1.9 nM.

What about the Kd (recombinant human IL-17A [9]) of the same binder?
Its Kd is 1 nM.

What about the “fold improved affinity over clone 1.1” value (recombinant human IL-17A [10]) of the same binder?
Its value is at most 10 fold.

And the IC50 (recombinant human IL-17A [11])?
The IC50 was 4 nM.

What about the Kd (recombinant human IL-17A [6]) of the same binder?
The Kd was 1.46 nM.

What about the koff (recombinant human IL-17A [6]) of the same binder?
The koff was 0.000966 s⁻¹.

What about the kon (recombinant human IL-17A [6]) of the same binder?
Its kon is 664000 M⁻¹ s⁻¹.

Does B2 bind (recombinant IL-17RA-Fc)?
Result: no binding

Does B2 bind (IL-17C [12])?
Result: no binding

Does B2 bind (IL-17F [13])?
Result: no binding

Does B2 bind (murine IL-17A)?
Result: binds

Does B2 bind (IL17E)?
Result: no binding

And the koff (recombinant human IL-17A [14])?
The koff was 0.000755 s⁻¹.

What about the kon (recombinant human IL-17A [14]) of the same binder?
Its kon is 700000 M⁻¹ s⁻¹.

B3: VH 1.6.1 (clone 1.6 expressed from phagemid vector: with linker residues and His tag) (VHH)
VHH: B1 VHH with N50E, K58Q, F80Y, H105Y
notes: Human single VH domain
With B3 as the binder, how does the “Cell assay IC50 (nM)” value (recombinant human IL-17A [2]) read?
The value was 1.3 nM.

And the Kd (recombinant human IL-17A [9])?
The Kd was 0.63 nM.

What about the “fold improved affinity over clone 1.1” value (recombinant human IL-17A [10]) of the same binder?
Its value is at most 10 fold.

And the IC50 (recombinant human IL-17A [11])?
Its IC50 is 5 nM.

And the Kd (recombinant human IL-17A [6])?
The Kd was 0.627 nM.

What about the koff (recombinant human IL-17A [6]) of the same binder?
Its koff is 0.000482 s⁻¹.

And the kon (recombinant human IL-17A [6])?
The kon was 770000 M⁻¹ s⁻¹.

Does B3 bind (IL17E)?
Result: no binding

Does B3 bind (IL-17C [7])?
Result: no binding

Does B3 bind (IL-17F [8])?
Result: no binding

B4: Clone 1.2 (VHH)
VHH: B1 VHH with N50E, E57V, K58Q, D62S, S63D, F80Y, H105Y
What does the source list for B4?
Cell assay IC50 (nM), IL-17A-induced IL6 release from HT1080 (recombinant human IL-17A [2]): 0.4 nM; EC50 (read off the curve) (recombinant human IL-17A [15]): ~0.8 nM; Kd (recombinant human IL-17A [16]): 0.57 nM; Kd (recombinant human IL-17A [6]): 0.555 nM; koff (recombinant human IL-17A [6]): 0.000485 s⁻¹; kon (recombinant human IL-17A [6]): 874000 M⁻¹ s⁻¹; Kd (recombinant human IL-17A [17]): 0.675 nM; koff (recombinant human IL-17A [17]): 2.26e-05 s⁻¹; kon (recombinant human IL-17A [17]): 33500 M⁻¹ s⁻¹
